Measured values from paper PMC6593408.

Key:
Experiment in all cases: EMSA
Conditions in all cases: EMSA: pKa-matched buffers (ethanolamine-CAPSO pH 9.6, Tris-acetate pH 8.0, bis-Tris-ACES pH 6.7), 155 mM NaCl, 5 nM DNA, 2.5-20 or 40 uM protein, 30 min room …
[1] = molecular target: T1, DsbA (Staphylococcus aureus USA300 LAC) (UniProt A0A0H2XFS3)
T1 sequence: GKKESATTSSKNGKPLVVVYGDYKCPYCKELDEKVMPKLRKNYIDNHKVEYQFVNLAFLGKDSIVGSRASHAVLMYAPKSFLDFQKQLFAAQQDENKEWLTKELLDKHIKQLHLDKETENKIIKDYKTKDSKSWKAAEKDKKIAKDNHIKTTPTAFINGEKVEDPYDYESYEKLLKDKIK

[2] = molecular target: T2, 0100 (Csa1A) (Staphylococcus aureus USA300 LAC) (UniProt Q2FKG1)
T2 sequence: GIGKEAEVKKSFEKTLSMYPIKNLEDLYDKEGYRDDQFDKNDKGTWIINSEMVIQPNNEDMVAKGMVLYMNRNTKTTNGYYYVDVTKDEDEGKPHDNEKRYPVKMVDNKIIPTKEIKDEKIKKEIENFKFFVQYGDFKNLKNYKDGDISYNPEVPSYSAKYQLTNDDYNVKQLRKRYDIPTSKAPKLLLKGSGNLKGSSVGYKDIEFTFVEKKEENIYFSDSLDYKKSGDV

[3] = molecular target: T3, CopL (0079) (Staphylococcus aureus USA300 LAC) (UniProt A0A0H2XFS1)
T3 sequence: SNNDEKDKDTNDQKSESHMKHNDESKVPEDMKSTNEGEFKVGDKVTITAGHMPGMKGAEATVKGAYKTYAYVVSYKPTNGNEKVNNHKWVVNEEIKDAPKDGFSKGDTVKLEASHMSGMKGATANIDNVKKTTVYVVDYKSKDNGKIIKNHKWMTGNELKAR

Measured: binding

GTTCATTATGAAGTCCCTCCAAAAATCATTTGATAATATAGTTTACAGCTATAATTGTAAACGCTATCATAAAATGTAACAATATCTTTTTGAAAATTGTAGTCATATTTATGTATAATTAATGAAAATGTTTTTCAAAATCAATAGAAATGGAGTGAGTAAGGTGTATTACATCGCAATCGATATTGGAGGCACTCAAATTAAATCGGCAGTTATTGATAAGCAATTGAATATGTTTGACTATCAACAAATATCAACG (double strand) [259-bp nanA promoter probe]
binds: all assays above
